Values quoted from earlier work, collected in PMC11893814.

Target: wild-type microtubule GTP cap (Homo sapiens) (UniProt P68363)
Sequence of UniProt P68363 (P68363 whole entry, chain 1 of 2): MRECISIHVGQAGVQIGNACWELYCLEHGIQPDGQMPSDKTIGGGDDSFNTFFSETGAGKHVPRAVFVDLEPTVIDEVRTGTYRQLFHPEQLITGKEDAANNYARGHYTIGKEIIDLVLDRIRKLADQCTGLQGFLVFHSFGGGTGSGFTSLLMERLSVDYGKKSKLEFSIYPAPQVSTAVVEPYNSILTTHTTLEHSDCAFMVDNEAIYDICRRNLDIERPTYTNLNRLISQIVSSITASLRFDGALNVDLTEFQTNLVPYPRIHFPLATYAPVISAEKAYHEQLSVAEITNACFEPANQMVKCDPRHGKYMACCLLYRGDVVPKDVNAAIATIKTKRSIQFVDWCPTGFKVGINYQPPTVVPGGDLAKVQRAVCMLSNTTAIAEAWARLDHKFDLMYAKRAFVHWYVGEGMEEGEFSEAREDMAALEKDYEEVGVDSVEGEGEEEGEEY
Sequence of UniProt P68363 (A8K854 whole entry, chain 2 of 2, further chain): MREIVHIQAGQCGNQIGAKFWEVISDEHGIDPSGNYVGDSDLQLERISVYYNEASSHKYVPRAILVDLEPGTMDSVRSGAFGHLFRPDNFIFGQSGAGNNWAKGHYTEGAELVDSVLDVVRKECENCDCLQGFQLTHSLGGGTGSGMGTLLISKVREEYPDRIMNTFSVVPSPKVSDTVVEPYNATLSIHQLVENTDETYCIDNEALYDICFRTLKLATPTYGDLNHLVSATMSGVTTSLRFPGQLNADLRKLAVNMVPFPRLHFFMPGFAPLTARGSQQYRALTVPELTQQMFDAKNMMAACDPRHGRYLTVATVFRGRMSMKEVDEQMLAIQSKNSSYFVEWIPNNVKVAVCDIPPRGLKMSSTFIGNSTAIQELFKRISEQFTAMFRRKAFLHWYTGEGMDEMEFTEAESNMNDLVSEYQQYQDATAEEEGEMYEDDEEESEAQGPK

In the case of EB3 (from UniProt Q9UPY8), the Kd is listed as 39.6 nM.
